Measured values published in patent US20230002480A1.

Experiments:
Assay in all cases: cell-based or functional assay
[1] = target: HIV-1 Env of pseudovirus Q23.17 (HIV-1)
[2] = target: HIV-1 Env pseudovirus R2184.c04 (HIV-1)
[3] = target: HIV-1 Env pseudovirus 6540.v4.c1 (HIV-1)
[4] = target: HIV-1 Env of pseudovirus Ce1176_A3 (HIV-1)
[5] = target: HIV-1 Env pseudovirus R3265.c06 (HIV-1)
[6] = target: HIV-1 Env of pseudovirus 231966.c02 (clade D) (HIV-1)
[7] = target: HIV-1 Env of pseudovirus 6041.v3.c23 (clade AC) (HIV-1)
[8] = target: HIV-1 Env of pseudovirus 0815.v3.c3 (clade ACD) (HIV-1)
[9] = target: HIV-1 Env of pseudovirus X2131_C1_B5 (clade G) (HIV-1)
[10] = target: HIV-1 Env of pseudovirus 3301.v1.c24 (clade AC) (HIV-1)
[11] = target: HIV-1 Env of pseudovirus X1632_S2_B10 (clade G) (HIV-1)
[12] = target: HIV-1 Env of pseudovirus 3103.v3.c10 (clade ACD) (HIV-1)
[13] = target: HIV-1 Env of pseudovirus 6480.v4.c25 (clade CD) (HIV-1)
[14] = target: HIV-1 Env of pseudovirus 3817.v2.c59 (clade CD) (HIV-1)
[15] = target: HIV-1 Env of pseudovirus 191084 B7-19 (HIV-1)
[16] = target: HIV-1 Env of pseudovirus BJOX025000.01.1 (clade CRF01_AE (T/F)) (HIV-1)
[17] = target: HIV-1 Env of pseudovirus 89-F1_2_25 (clade CD) (HIV-1)
[18] = target: HIV-1 Env of pseudovirus 6545.v4.c1 (clade AC) (HIV-1)
[19] = target: HIV-1 Env of pseudovirus A07412M1.vrc12 (clade D) (HIV-1)
[20] = target: HIV-1 Env of pseudovirus P1981_C5_3 (clade G) (HIV-1)
[21] = target: HIV-1 Env of pseudovirus 231965.c01 (clade D) (HIV-1)
[22] = target: HIV-1 Env of pseudovirus 0260.v5.c36 (HIV-1)
[23] = target: HIV-1 Env of pseudovirus 6540.v4.c1 (clade AC) (HIV-1)
[24] = target: HIV-1 Env of pseudovirus 3016.v5.c45 (clade D) (HIV-1)
[25] = target: HIV-1 Env of pseudovirus 6811.v7.c18 (clade CD) (HIV-1)
[26] = target: HIV-1 Env of pseudovirus 6952.v1.c20 (clade CD) (HIV-1)

Substance: N49P9.1 (antibody)
- IC50 [1]: 0.029 µg/mL
- IC80 [1]: 0.106 µg/mL
- MPI [1]: 100
- IC50 [2]: 0.019 µg/mL
- IC80 [2]: 0.057 µg/mL
- MPI [2]: 100
- IC50 [3]: > 50 µg/mL
- IC80 [3]: > 50 µg/mL
- MPI [3]: 30
- IC50 [4]: 0.44 µg/mL
- IC80 [4]: 0.998 µg/mL
- MPI [4]: 100
- IC50 [5]: 0.469 µg/mL
- IC80 [5]: 1.62 µg/mL
- MPI [5]: 100

Substance: N49P19 (antibody)
- IC50 [1]: 0.234 µg/mL
- IC80 [1]: 1.37 µg/mL
- MPI [1]: 100
- IC50 [2]: 0.132 µg/mL
- IC80 [2]: 0.445 µg/mL
- MPI [2]: 100
- IC50 [3]: 11.2 µg/mL
- IC80 [3]: > 50 µg/mL
- MPI [3]: 63
- IC50 [4]: 1.57 µg/mL
- IC80 [4]: 9.84 µg/mL
- MPI [4]: 99
- IC50 [5]: 0.634 µg/mL
- IC80 [5]: 2.73 µg/mL
- MPI [5]: 100

Substance: PG9 (antibody)
- IC50, titer in TZM.bl cells [6]: 0.075 µg/mL
- IC80, titer in TZM.bl cells [6]: 0.257 µg/mL
- IC50, titer in TZM.bl cells [7]: 0.244 µg/mL
- IC80, titer in TZM.bl cells [7]: 3.64 µg/mL
- IC50, titer in TZM.bl cells [1]: 0.027 µg/mL
- IC80, titer in TZM.bl cells [1]: 0.082 µg/mL
- IC50, titer in TZM.bl cells [8]: > 50 µg/mL
- IC80, titer in TZM.bl cells [8]: > 50 µg/mL
- IC50, titer in TZM.bl cells [9]: 0.084 µg/mL
- IC80, titer in TZM.bl cells [9]: 0.286 µg/mL
- IC50, titer in TZM.bl cells [10]: 0.216 µg/mL
- IC80, titer in TZM.bl cells [10]: 0.756 µg/mL
- IC50, titer in TZM.bl cells [11]: 0.107 µg/mL
- IC80, titer in TZM.bl cells [11]: 0.934 µg/mL
- IC50, titer in TZM.bl cells [12]: 28 µg/mL
- IC80, titer in TZM.bl cells [12]: > 50 µg/mL
- IC50, titer in TZM.bl cells [13]: > 50 µg/mL
- IC80, titer in TZM.bl cells [13]: > 50 µg/mL
- IC50, titer in TZM.bl cells [14]: 0.02 µg/mL
- IC80, titer in TZM.bl cells [14]: 0.062 µg/mL
- IC50, titer in TZM.bl cells [15]: 0.043 µg/mL
- IC80, titer in TZM.bl cells [15]: 0.202 µg/mL
- IC50, titer in TZM.bl cells [16]: 0.144 µg/mL
- IC80, titer in TZM.bl cells [16]: 0.335 µg/mL
- IC50, titer in TZM.bl cells [17]: 0.668 µg/mL
- IC80, titer in TZM.bl cells [17]: 10.1 µg/mL
- IC50, titer in TZM.bl cells [18]: 0.099 µg/mL
- IC80, titer in TZM.bl cells [18]: 0.351 µg/mL
- IC50, titer in TZM.bl cells [19]: 0.697 µg/mL
- IC80, titer in TZM.bl cells [19]: 7.96 µg/mL
- IC50, titer in TZM.bl cells [20]: 0.258 µg/mL
- IC80, titer in TZM.bl cells [20]: 2.51 µg/mL
- IC50, titer in TZM.bl cells [21]: 1.28 µg/mL
- IC80, titer in TZM.bl cells [21]: 48 µg/mL
- IC50, titer in TZM.bl cells [4]: 0.014 µg/mL
- IC80, titer in TZM.bl cells [4]: 0.044 µg/mL
- IC50, titer in TZM.bl cells [22]: 1.69 µg/mL
- IC80, titer in TZM.bl cells [22]: 9 µg/mL
- IC50, titer in TZM.bl cells [23]: 0.07 µg/mL
- IC80, titer in TZM.bl cells [23]: 0.253 µg/mL
- IC50, titer in TZM.bl cells [24]: 2.46 µg/mL
- IC80, titer in TZM.bl cells [24]: > 50 µg/mL
- IC50, titer in TZM.bl cells [25]: > 50 µg/mL
- IC80, titer in TZM.bl cells [25]: > 50 µg/mL
- IC50, titer in TZM.bl cells [26]: > 50 µg/mL
- IC80, titer in TZM.bl cells [26]: > 50 µg/mL

Substance: PG16 (antibody)
- IC50, titer in TZM.bl cells [6]: 0.007 µg/mL
- IC80, titer in TZM.bl cells [6]: 0.031 µg/mL
- IC50, titer in TZM.bl cells [7]: 0.048 µg/mL
- IC80, titer in TZM.bl cells [7]: 0.256 µg/mL
- IC50, titer in TZM.bl cells [1]: 0.008 µg/mL
- IC80, titer in TZM.bl cells [1]: 0.043 µg/mL
- IC50, titer in TZM.bl cells [8]: > 50 µg/mL
- IC80, titer in TZM.bl cells [8]: > 50 µg/mL
- IC50, titer in TZM.bl cells [9]: 0.024 µg/mL
- IC80, titer in TZM.bl cells [9]: 0.139 µg/mL
- IC50, titer in TZM.bl cells [10]: 0.02 µg/mL
- IC80, titer in TZM.bl cells [10]: 0.087 µg/mL
- IC50, titer in TZM.bl cells [11]: 0.012 µg/mL
- IC80, titer in TZM.bl cells [11]: 0.076 µg/mL
- IC50, titer in TZM.bl cells [12]: 25.4 µg/mL
- IC80, titer in TZM.bl cells [12]: > 50 µg/mL
- IC50, titer in TZM.bl cells [13]: > 50 µg/mL
- IC80, titer in TZM.bl cells [13]: > 50 µg/mL
- IC50, titer in TZM.bl cells [14]: 0.008 µg/mL
- IC80, titer in TZM.bl cells [14]: 0.06 µg/mL
- IC50, titer in TZM.bl cells [15]: 0.024 µg/mL
- IC80, titer in TZM.bl cells [15]: 0.238 µg/mL
- IC50, titer in TZM.bl cells [16]: 0.071 µg/mL
- IC80, titer in TZM.bl cells [16]: > 50 µg/mL
- IC50, titer in TZM.bl cells [17]: 47.6 µg/mL
- IC80, titer in TZM.bl cells [17]: > 50 µg/mL
- IC50, titer in TZM.bl cells [18]: 0.044 µg/mL
- IC80, titer in TZM.bl cells [18]: 1.56 µg/mL
- IC50, titer in TZM.bl cells [19]: 0.343 µg/mL
- IC80, titer in TZM.bl cells [19]: > 50 µg/mL
- IC50, titer in TZM.bl cells [20]: 0.376 µg/mL
- IC80, titer in TZM.bl cells [20]: > 50 µg/mL
- IC50, titer in TZM.bl cells [21]: 1.44 µg/mL
- IC80, titer in TZM.bl cells [21]: > 50 µg/mL
- IC50, titer in TZM.bl cells [4]: 0.003 µg/mL
- IC80, titer in TZM.bl cells [4]: 0.011 µg/mL
- IC50, titer in TZM.bl cells [22]: 1.54 µg/mL
- IC80, titer in TZM.bl cells [22]: 36.1 µg/mL
- IC50, titer in TZM.bl cells [23]: 0.035 µg/mL
- IC80, titer in TZM.bl cells [23]: 0.42 µg/mL
- IC50, titer in TZM.bl cells [24]: > 50 µg/mL
- IC80, titer in TZM.bl cells [24]: > 50 µg/mL
- IC50, titer in TZM.bl cells [25]: > 50 µg/mL
- IC80, titer in TZM.bl cells [25]: > 50 µg/mL
- IC50, titer in TZM.bl cells [26]: 21.9 µg/mL
- IC80, titer in TZM.bl cells [26]: > 50 µg/mL
